Substrate: C[C@H](NC(=O)CCC(=O)O)C(=O)N[C@@H](C)C(=O)N1CCC[C@H]1C(=O)N[C@@H](Cc1ccccc1)C(=O)Nc1ccc([N+](=O)[O-])cc1
Test: purified protein, by the assay type
Assay type: biochemical, Toxoplasma gondii
Conditions: other: substrate AAPF, 0 °C, pH 8.0
Protocol: A trans-isomer is formed by Cyp, which is selectively cleaved by chymotrypsin, producing 4-nitroaniline, a yellow-colored product that can be measured spectrophotometrically.
The assay was performed in 50 mM Hepes, pH 8, and 100 mM NaCl at 0 °C. […] Once the temperature reached 0 °C, chymotrypsin solution, dissolved in HCl 1 mM, was added at 1.8 mg mL^–1 to start the reaction.
Successively, Cyp was added in large excess to enhance the cis-to-trans isomerization. The cis population was estimated by the difference between the final and the initial absorbance.
For all of the experiments, the slope of the catalyzed reaction was corrected for the spontaneous thermal cis–trans isomerization in the presence of the only chymotrypsin.
All measurements were repeated as triplicate, and the error was calculated as the mean standard error of the three measurements. The error associated with the parameter kcat/Km was propagated in agreement with the following equation eq 1 [drawing 1]

B1: TgCyp18.4 (Toxoplasma gondii VEG) (protein)
chain: MSVTIKTNLGDLKAELYCQQAPKTCKNFLALCASDYYNGTRFHRNIKGFAIQGGDPTGTGKGGESIYGGLFEDEFVSSLKHDRRGILSMANQGKPNTNGSQFFITYCRQPHLNGVYSVFGRLIDGMDTLDKMEREPVGRKNRPENDIIIEQVIIHANPIAEMDQL
  Km: 286 ± 39 µM
  kcat: 2.8 ± 0.4 s⁻¹
  kcat/Km: 10000 ± 2000 M⁻¹ s⁻¹

Source: PMC9926490, “Structural Basis for Cyclosporin Isoform-Specific Inhibition of Cyclophilins from Toxoplasma gondii” (ACS Infectious Diseases, 2023)
